Laboratory results: publication doi:10.1101/2024.10.14.618187, “Molecular basis of interchain disulfide-bond formation in BMP-9 and BMP-10” (bioRxiv, 2024)

B1: Pro-(fr)-BMP-9 (natural protein, human, UniProt Q9UK05 23-429, looked up)
chain: KPLQSWGRGSAGGNAHSPLGVPGGGLPEHTFNLKMFLENVKVDFLRSLNLSGVPSQDKTRVEPPQYMIDLYNRYTSDKSTTPASNIVRSFSMEDAISITATEDFPFQKHILLFNISIPRHEQITRAELRLYVSCQNHVDPSHDLKGSVVIYDVLDGTDAWDSATETKTFLVSQDIQDEGWETLEVSSAVKRWVRSDSTKSKNKLEVTVESHRKGCDTLDISVPPGSRNLPFFVVFSNDHSSGTKETRLELREMISHEQESVLKKLSKDGSTEAGESSHEEDTDGHVAAGSTLARRKRSSGAGSHCQKTSLRVNFEDIGWDSWIIAPKEYEAYECKGGCFFPLADDVTPTKHAIVQTLVHLKFPTKVGKACCVPTKLSPISVLYKDDMGVPTLKYHYEGMSVAECGCR
notes: human proBMP9 residues 23-429 with the natural furin site; secreted partially processed; Partly cut by furin into prodomain and growth factor (12 and 24 kDa forms on the gel); also called Pro-BMP-9 with unmodified furin processing site; wild-type BMP-9; source: expi293 (suspension HEK293), secreted; purified by IMAC; not shown: 8xHis, N-terminal, kept
B2: Pro-(X)-BMP-9 G389S, K357R (natural protein, human, UniProt Q9UK05 23-429, looked up)
chain: KPLQSWGRGSAGGNAHSPLGVPGGGLPEHTFNLKMFLENVKVDFLRSLNLSGVPSQDKTRVEPPQYMIDLYNRYTSDKSTTPASNIVRSFSMEDAISITATEDFPFQKHILLFNISIPRHEQITRAELRLYVSCQNHVDPSHDLKGSVVIYDVLDGTDAWDSATETKTFLVSQDIQDEGWETLEVSSAVKRWVRSDSTKSKNKLEVTVESHRKGCDTLDISVPPGSRNLPFFVVFSNDHSSGTKETRLELREMISHEQESVLKKLSKDGSTEAGESSHEEDTDGHVAAGSTLAIEGRSSGAGSHCQKTSLRVNFEDIGWDSWIIAPKEYEAYECRGGCFFPLADDVTPTKHAIVQTLVHLKFPTKVSKACCVPTKLSPISVLYKDDMGVPTLKYHYEGMSVAECGCR
notes: also called G389S, K357R BMP-9; BMP-9 double mutant; source: expi293 (suspension HEK293), secreted; purified by IMAC; not shown: 8xHis, N-terminal, kept
B3: Pro-(X)-BMP-9 G389S (natural protein, human, UniProt Q9UK05 23-429, looked up)
chain: KPLQSWGRGSAGGNAHSPLGVPGGGLPEHTFNLKMFLENVKVDFLRSLNLSGVPSQDKTRVEPPQYMIDLYNRYTSDKSTTPASNIVRSFSMEDAISITATEDFPFQKHILLFNISIPRHEQITRAELRLYVSCQNHVDPSHDLKGSVVIYDVLDGTDAWDSATETKTFLVSQDIQDEGWETLEVSSAVKRWVRSDSTKSKNKLEVTVESHRKGCDTLDISVPPGSRNLPFFVVFSNDHSSGTKETRLELREMISHEQESVLKKLSKDGSTEAGESSHEEDTDGHVAAGSTLAIEGRSSGAGSHCQKTSLRVNFEDIGWDSWIIAPKEYEAYECKGGCFFPLADDVTPTKHAIVQTLVHLKFPTKVSKACCVPTKLSPISVLYKDDMGVPTLKYHYEGMSVAECGCR
notes: also called G389S BMP-9; source: expi293 (suspension HEK293), secreted; purified by IMAC; not shown: 8xHis, N-terminal, kept
B4: Pro-(X)-BMP-9 K357R (natural protein, human, UniProt Q9UK05 23-429, looked up)
chain: KPLQSWGRGSAGGNAHSPLGVPGGGLPEHTFNLKMFLENVKVDFLRSLNLSGVPSQDKTRVEPPQYMIDLYNRYTSDKSTTPASNIVRSFSMEDAISITATEDFPFQKHILLFNISIPRHEQITRAELRLYVSCQNHVDPSHDLKGSVVIYDVLDGTDAWDSATETKTFLVSQDIQDEGWETLEVSSAVKRWVRSDSTKSKNKLEVTVESHRKGCDTLDISVPPGSRNLPFFVVFSNDHSSGTKETRLELREMISHEQESVLKKLSKDGSTEAGESSHEEDTDGHVAAGSTLAIEGRSSGAGSHCQKTSLRVNFEDIGWDSWIIAPKEYEAYECRGGCFFPLADDVTPTKHAIVQTLVHLKFPTKVGKACCVPTKLSPISVLYKDDMGVPTLKYHYEGMSVAECGCR
notes: also called K357R BMP-9; source: expi293 (suspension HEK293), secreted; purified by IMAC; not shown: 8xHis, N-terminal, kept
B5: Pro-(X)-BMP-9 (natural protein, human, UniProt Q9UK05 23-429, looked up)
chain: KPLQSWGRGSAGGNAHSPLGVPGGGLPEHTFNLKMFLENVKVDFLRSLNLSGVPSQDKTRVEPPQYMIDLYNRYTSDKSTTPASNIVRSFSMEDAISITATEDFPFQKHILLFNISIPRHEQITRAELRLYVSCQNHVDPSHDLKGSVVIYDVLDGTDAWDSATETKTFLVSQDIQDEGWETLEVSSAVKRWVRSDSTKSKNKLEVTVESHRKGCDTLDISVPPGSRNLPFFVVFSNDHSSGTKETRLELREMISHEQESVLKKLSKDGSTEAGESSHEEDTDGHVAAGSTLAIEGRSSGAGSHCQKTSLRVNFEDIGWDSWIIAPKEYEAYECKGGCFFPLADDVTPTKHAIVQTLVHLKFPTKVGKACCVPTKLSPISVLYKDDMGVPTLKYHYEGMSVAECGCR
notes: human proBMP9 residues 23-429, furin site RRKR replaced by factor X site IEGR; Secreted unprocessed as a monomer-dimer mixture; also called Pro-BMP-9 with factor-X processing site; Pro-BMP-9 wild-type; source: expi293 (suspension HEK293), secreted; purified from conditioned medium by IMAC; not shown: 8xHis, N-terminal, kept
B6: Pro-(fr)-Act-A (natural protein, human, UniProt P08476 27-426, looked up)
chain: EGHSAAPDCPSCALAALPKDVPNSQPEMVEAVKKHILNMLHLKKRPDVTQPVPKAALLNAIRKLHVGKVGENGYVEIEDDIGRRAEMNELMEQTSEIITFAESGTARKTLHFEISKEGSDLSVVERAEVWLFLKVPKANRTRTKVTIRLFQQQKHPQGSLDTGEEAEEVGLKGERSELLLSEKVVDARKSTWHVFPVSSSIQRLLDQGKSSLDVRIACEQCQESGASLVLLGKKKKKEEEGEGKKKGGGEGGAGADEEKEQSHRPFLMLQARQSEDHPHRRRRRGLECDGKVNICCKKQFFVSFKDIGWNDWIIAPSGYHANYCEGECPSHIAGTSGSSLSFHSTVINHYRMRGHSPFANLKSCCVPTKLRPMSMLYYDDGQNIIKKDIQNMIVEECGCS
notes: human proINHBA residues 27-426; The results call it N-terminally histidine-tagged and purified by that tag; the methods say 'with no tag or processing site'; Furin processing incomplete; also called Pro-Activin-A; Pro-Act-A; source: expi293 (suspension HEK293), secreted; purified from conditioned medium by the histidine tag; not shown: His tag, N-terminal, kept

Target: the molecule itself
Experiment: non-reducing SDS-PAGE after IMAC, with densitometry; His-tagged pro-proteins purified from expi293 conditioned medium by IMAC, run non-reduced and reduced; shows the disulfide-linked dimer beside the monomer; bands quantified with ImageJ

Binding result, binds:
B1, B2, B3, B4, B5, B6
